From patent publication EP4036575A1

Molecular target: mouse recombinant His-calmodulin (mouse), P0DP26

B1: Mastoparan, P01514 1-14 (peptide)
peptide: INLKALAALAKKIL
modifications: not checked
Kd: 1.2 nM
